Assay results taken from IntAct's records for PubMed 16286470.

B1: Dual specificity protein phosphatase 1 (Homo sapiens), P28562 (parent)
chain: MVMEVGTLDAGGLRALLGERAAQCLLLDCRSFFAFNAGHIAGSVNVRFSTIVRRRAKGAMGLEHIVPNAELRGRLLAGAYHAVVLLDERSAALDGAKRDGTLALAAGALCREARAAQVFFLKGGYEAFSASCPELCSKQSTPMGLSLPLSTSVPDSAESGCSSCSTPLYDQGGPVEILPFLYLGSAYHASRKDMLDALGITALINVSANCPNHFEGHYQYKSIPVEDNHKADISSWFNEAIDFIDSIKNAGGRVFVHCQAGISRSATICLAYLMRTNRVKLDEAFEFVKQRRSIISPNFSFMGQLLQFESQVLAPHCSAEAGSPAMAVLDRGTSTTTVFNFPVSIPVHSTNSALSYLQSPITTSPSC

Variants of: B1
Settings: with ubb_human UBB

effect of a mutation on the interaction | Variant
decreasing interaction | F339A;F341A
decreasing interaction | S296A
decreasing interaction | S323A

Variants of: B1
Settings: with skp2_human SKP2, Q13309
skp2_human SKP2, Q13309, sequence (Q13309 whole entry): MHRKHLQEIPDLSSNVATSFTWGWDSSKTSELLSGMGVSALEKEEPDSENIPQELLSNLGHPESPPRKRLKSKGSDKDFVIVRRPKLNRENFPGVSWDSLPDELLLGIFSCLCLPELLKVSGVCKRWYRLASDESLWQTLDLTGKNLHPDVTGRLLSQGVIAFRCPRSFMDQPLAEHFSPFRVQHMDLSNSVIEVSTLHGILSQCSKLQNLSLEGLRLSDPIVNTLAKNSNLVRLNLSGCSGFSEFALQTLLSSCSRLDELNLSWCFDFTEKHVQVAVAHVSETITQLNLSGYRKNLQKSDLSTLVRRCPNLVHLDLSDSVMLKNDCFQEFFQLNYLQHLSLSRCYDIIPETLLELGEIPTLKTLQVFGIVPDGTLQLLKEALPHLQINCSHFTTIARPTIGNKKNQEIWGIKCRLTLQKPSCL

effect of a mutation on the interaction | Variant
decreasing interaction | S296A
